The Human Domainome abundance scans (Beltran et al. 2025)
± gives the uncertainty stated by the source.

B1: Retinoic acid receptor beta, residues 85 to 161; numbered along this chain, P10826 (parent)
chain: YKPCFVCQDKSSGYHYGVSACEGCKGFFRRSIQKNMIYTCHRDKNCVINKVTRNRCQYCRLQKCFEVGMSKESVRND

Variants of: B1
Experiment: abundance fitness (aPCA) (normalised: wild type 0, dead -1); higher = more abundant; growth selection in yeast, the domain comes from the species named
Settings: Homo sapiens

Variant | abundance fitness
V51L | 0.238 ± 0.035
V51K | -0.013 ± 0.063
V51M | 0.166 ± 0.056
V51S | 0.011 ± 0.046
V51D | 0.255 ± 0.091
Q62S | 0.012 ± 0.041
Q62L | -0.042 ± 0.039
Q62T | -0.004 ± 0.061
Q62M | -0.033 ± 0.051
Q62G | -0.317 ± 0.05
Q62A | 0.043 ± 0.045
Q62C | -0.268 ± 0.072
Q62W | -0.203 ± 0.047
Q62P | -0.814 ± 0.33
Q62V | 0.026 ± 0.034
Q62I | 0.018 ± 0.074
Q62N | -0.056 ± 0.087
Q62E | 0.017 ± 0.059
Q62K | 0.125 ± 0.051
Q62H | 0.123 ± 0.081
Q62D | -0.107 ± 0.057

Variant | abundance fitness
R55D | 0.244 ± 0.065
R55N | 0.26 ± 0.065
R55F | -0.343 ± 0.18
R55W | 0.149 ± 0.048
R55P | 0.218 ± 0.061
R55G | 0.262 ± 0.032
R55E | 0.277 ± 0.043
R55C | 0.102 ± 0.093
R55V | 0.227 ± 0.036
R55I | 0.155 ± 0.069
R55K | 0.198 ± 0.048
R55H | 0.205 ± 0.096
R55Y | 0.077 ± 0.07
R55M | 0.25 ± 0.045
R55S | 0.265 ± 0.042
R55L | 0.183 ± 0.038
R55A | 0.18 ± 0.043
R55T | 0.239 ± 0.048
K63S | -0.443 ± 0.072
K63A | -0.306 ± 0.06
K63C | -0.641 ± 0.18

Variant | abundance fitness
K63P | -0.847 ± 0.21
K63W | -0.772 ± 0.095
K63N | -0.519 ± 0.2
K63I | -0.321 ± 0.13
K63R | -0.041 ± 0.032
K63E | -0.588 ± 0.087
K63L | -0.272 ± 0.059
K63G | -0.525 ± 0.044
K63T | -0.11 ± 0.055
K63H | -0.027 ± 0.12
K63D | -0.413 ± 0.12
K63Q | -0.305 ± 0.075
K63Y | -0.37 ± 0.21
V47H | -0.077 ± 0.049
V47L | 0.03 ± 0.033
V47I | -0.082 ± 0.044
V47N | -0.103 ± 0.066
V47M | 0.075 ± 0.047
V47W | -0.048 ± 0.048
V47S | 0.024 ± 0.033
V47T | 0.056 ± 0.038

Variant | abundance fitness
V47R | -0.075 ± 0.037
V47P | 0.043 ± 0.041
V47Y | 0.107 ± 0.053
V47Q | 0.026 ± 0.049
Y58C | 0.046 ± 0.085
Y58A | 0.107 ± 0.046
Y58H | -0.111 ± 0.13
Y58G | -0.134 ± 0.039
Y58V | -0.679 ± 0.1
Y58P | -1.13 ± 0.32
Y58R | -0.325 ± 0.057
Y58N | -0.634 ± 0.17
Y58K | -0.147 ± 0.074
Y58D | -0.131 ± 0.077
Y58M | -0.237 ± 0.08
Y58Q | -0.259 ± 0.084
Y58T | -0.501 ± 0.16
Y58L | -0.545 ± 0.087
Y58I | -0.898 ± 0.32
Y58W | 0.107 ± 0.051
Y58E | -0.214 ± 0.063
